One may read the EC50 as the concentration needed to bring the measured effect to its halfway point. One may read the Kd as a measure of binding affinity in units of concentration. A lower Kd goes with a tighter complex.

The target in experiment [1] is T1, human BCMA on the cell membrane surface (H929 and RPMI8226 cells) (human, UniProt Q02223 1-184).
T1 construct: whole, on cells; also called BCMA antigen on the cell membrane surface; BCMA-expressing cell line H929
T1 sequence (looked up): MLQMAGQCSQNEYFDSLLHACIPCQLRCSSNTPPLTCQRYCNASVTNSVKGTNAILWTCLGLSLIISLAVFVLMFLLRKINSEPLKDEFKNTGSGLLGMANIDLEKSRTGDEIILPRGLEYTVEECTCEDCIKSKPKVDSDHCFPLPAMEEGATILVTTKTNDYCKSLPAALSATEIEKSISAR
In words: flow cytometry on H929 cells, scFv-Fc. In general terms: Flow cytometry measures light scatter and fluorescence of single cells or particles in a stream.

Experiment [2] concerns the target T1, human BCMA on the cell membrane surface …. In words: flow cytometry on RPMI8226 cells, scFv-Fc.
Experiment [3] has the same target. Nature of the experiment: flow cytometry on RPMI8226 cells, EC50 ratio (as the table labels it).
For experiment [4] the target is unchanged. In words: flow cytometry on RPMI8226 cells (as the table labels it; the text gives this value to J6).
Experiment [5] shares this target. In words: flow cytometry on RPMI8226 cells (as the text tells it; the table gives this value to J6); flow cytometry on RPMI8226 cells; value as the text of paragraph 107 assigns it.
In experiment [6] the target is T2, BCMA-Fc fusion protein (Acrobiosystems, catalog number BC7-H5254) (human, UniProt Q02223 1-54, biotin cross-linked, 3 to 5 biotin molecules per molecule, where the biotinylated antigen is used (ELISA of Table 3); sites not stated).
T2 construct: Bought protein; also called BCMA antigen; BCMA-Fc antigen; not shown: human Fc of the bought fusion protein
T2 sequence (looked up): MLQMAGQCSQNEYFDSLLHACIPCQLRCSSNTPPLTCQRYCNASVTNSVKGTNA
Nature of the experiment: ELISA EC50 relative to J6. The protocol:
(§1) After antibodies with different concentrations were coated on enzyme-linked plates, the biotinylated BCMA antigen, streptavidin-conjugated horseradish peroxidase (HRP) and chromogenic substrate were added step by step. The obtained signal-antibody gradient curve is shown in Graph A of FIG. 4, and the relative affinity change fold is shown in Table 3.
For orientation: In an ELISA, binding on a coated surface is turned into a signal by an enzyme label.

Experiment [7] has as its target T1, human BCMA on the cell membrane surface …. In words: flow cytometry on RPMI8226 cells. An excerpt:
(§2) In order to understand the apparent affinity of these antibodies to BCMA on the cell surface, the binding of B10 parental antibody and the finally obtained 4 mutants to BCMA-expressing cell line RPMI8226 were compared with J6 by flow cytometry (see Graph B of FIG. 4, Table 4).

Experiment [8] shares this target. In words: flow cytometry on RPMI8226 cells, EC50 ratio.
Text: as §2

Experiment [9] deals with T2, BCMA-Fc fusion protein (Acrobiosystems, …). In words: affinity worked out from the ELISA EC50 fold against J6 (taken as about 0.2 nM). Here is the method: as §1
Experiment [10] has the same target. Nature of the experiment: ELISA, BCMA-Fc coated at 0.25 µg/ml, Fab from E. coli, HRP anti-human Fab. Here is the method: The conditions of the enzyme-linked reaction were optimized through preliminary experiments, to allow the A450 absorption value of the binding of B10 parental antibody Fab to the antigen BCMA-Fc 3 times higher than the background signal. The BCMA-Fc antigen was coated at 0.25 μg/ml on the enzyme-linked plate one day in advance, and the secreted and expressed mutant Fab was added to the wells on the following day, with HRP-conjugated anti-human Fab as the second antibody, the substrate was colored, and A450 was read, to obtain clones corresponding to the wells with signals 1.5 times higher than the maximum value of the parental wells, and these clones were called hits. All hits of the light and heavy chain variable regions were collected, inducted to express and tested by ELISA to verify their affinity higher than the parental antibody. Sequence analysis of mutant regions of the plasmid of the re-positive clone was performed, to obtain the mutation information of CDR amino acids. The process was called primary screening. All mutation information in the CDR region that was beneficial to the improvement of affinity was obtained: mutation sites that improved affinity in the heavy chain variable region CDR are shown in Table 1, and those in the light chain variable region CDR are shown in Table 2.

Positions count from the first letter of the chain named.

B1: B10 scFv-Fc protein (B10 parental antibody) (Fc fusion)
scFv: QVQLQQSGAEVKKPGSSVKVSCKASGGTFSSYAISWVRQAPGQGLEWMGGIIPIFGTANYAQKFQGRVTITADESTSTAYMELSSLRSEDTAVYYCARGWYFDLWGRGTLVTVSSASTGGSSRSSSSGGGGSGGGGLPVLTQPPSASGTPGQRVTISCSGSSSNIGGYSVNWYQQFPGTAPKLLIYRNNQRPSGVPDRFSGSKSGASASLAISGLQSEDEADYYCAAWDDSLIGYVFGTGTQLTVL
notes: scFv gene fused with the Fc gene of human IgG4 (plasmid pFH-B10); also called clone B10; scFv-Fc protein of B10; not shown: Fc of human IgG4 from vector pFH
On to B1, for which the results for the percentage of binding in [1] and in experiment [2] were 75.3% and 5.54%, respectively. Further, the “Fold increase relative to J6” value in experiment [3] was found to be 0.57 fold. The concentration for a half-maximal effect (EC50) was determined as 1.57 µg/mL in experiment [4] and 2.74 µg/mL in [5].

B2: B10.4 scFv-Fc (Fc fusion)
scFv: QVQLQQSGAEVKKPGSSVKVSCKASGGTFSKSAIMWVRQAPGQGLEWMGGVIPIFGTANYAQKFQGRVTITADESTSTAYMELSSLRSEDTAVYYCARGWYLDLWGRGTLVTVSSASTGGSSRSSSSGGGGSGGGGLPVLTQPPSASGTPGQRVTISCSGSSNNIGGYSVNWYQQFPGTAPKLLIYRNNQRPSGVPDRFSGSKSGASFSLAISGLQFEDEADYYCARWDDSVIGWVLGTGTQLTVL
notes: also called mutant B10.4; not shown: Fc (scFv-Fc)
As for B2, in experiment [6], the “Fold of J6” value is 1.55 fold. For the same molecule, the response in [7] was half-maximal at 0.0343 µg/mL (EC50). Moreover, the percentage of binding in experiment [1] is 97.9%; in experiment [2], 57.5%. Moreover, the “Fold increase relative to J6” value in [8] is 79.9 fold. The molecule also gave a Kd in experiment [9] of 0.31 nM.

B3: B10.5 scFv-Fc (Fc fusion)
scFv: B1 scFv with S31K, Y32S, S35H, I51V, F102L, E220V
notes: also called mutant B10.5; not shown: Fc (scFv-Fc)
Consider B3, for which, in experiment [6], the “Fold of J6” value came to 1.35 fold. Further, the 50% effective concentration (EC50) in experiment [7] was 0.0406 µg/mL. Moreover, the percentage of binding stood at 97.2% in experiment [1] and 58.2% in [2]. Further, the “Fold increase relative to J6” value in experiment [8] stood at 67.5 fold. This molecule returned a Kd in experiment [9] of 0.27 nM.

B4: B10.9 scFv-Fc (Fc fusion)
scFv: B2 scFv with M35Q, F208A, F217S, R227A, V232E, V236L, L237F
notes: also called mutant B10.9; not shown: Fc (scFv-Fc)
In the case of B4, the “Fold of J6” value in [6] is 1.43 fold. The molecule further had an EC50 in [7] of 0.0451 µg/mL. The percentage of binding in [1] is 91.6%; in experiment [2], 42.9%. Besides, in experiment [8], the “Fold increase relative to J6” value amounted to 60.7 fold. Further, in experiment [9], binding was characterised by a dissociation constant (Kd) of 0.29 nM.

B5: B10.3 scFv-Fc (Fc fusion)
scFv: B2 scFv with M35Q, F208A, F217S, R227A, V236L, L237F
notes: also called mutant B10.3; not shown: Fc (scFv-Fc)
With B5, in experiment [6], the “Fold of J6” value stood at 1.29 fold. It took 0.0282 µg/mL to reach a half-maximal effect in experiment [7] (EC50). Besides, the percentage of binding in experiment [1] stood at 98%; in experiment [2], 54.9%. In experiment [8], the “Fold increase relative to J6” value came out at 97.1 fold. Moreover, in [9], the equilibrium dissociation constant (Kd) came to 0.26 nM.

B6: B10 parental antibody Fab (Fab, V domains shown)
VH: QVQLQQSGAEVKKPGSSVKVSCKASGGTFSSYAISWVRQAPGQGLEWMGGIIPIFGTANYAQKFQGRVTITADESTSTAYMELSSLRSEDTAVYYCARGWYFDLWGRGTLVTVSS
VL: LPVLTQPPSASGTPGQRVTISCSGSSSNIGGYSVNWYQQFPGTAPKLLIYRNNQRPSGVPDRFSGSKSGASASLAISGLQSEDEADYYCAAWDDSLIGYVFGTGTQLTVL
notes: Variable regions cloned into vector pUFL and secreted as Fab by E. coli BL21(DE3); also called Fab form of B10
With B6, the binding result in experiment [10] is given as “binds”.

The values above are taken from US20250011447A1 (EXCYTE BIOPHARMA, published 2025).
